These results are taken from PMC4533228.

The test addresses homotypic K48-polyUb cyB1-NT^K64 (GST-bound single-lysine N-terminal fragment of cyclin B1 ubiquitinated with Ub^K48) (UniProt P0CG48). Put plainly: pull-down; resin-bound polyUb conjugates (≈20 nM) incubated with purified 26S proteasomes (10 nM) at 4°C, washed; bound proteasomes measured by cleavage of suc-LLVY-AMC at 37°C (one panel also with 300 nM hHR23A).

Sequence of homotypic K48-polyUb cyB1-NT^K64 (GST-bound single-lysine N-terminal fragment of cyclin B1 ubiquitinated with Ub^K48) (P0CG48 whole entry, looked up, the tested form may be a part): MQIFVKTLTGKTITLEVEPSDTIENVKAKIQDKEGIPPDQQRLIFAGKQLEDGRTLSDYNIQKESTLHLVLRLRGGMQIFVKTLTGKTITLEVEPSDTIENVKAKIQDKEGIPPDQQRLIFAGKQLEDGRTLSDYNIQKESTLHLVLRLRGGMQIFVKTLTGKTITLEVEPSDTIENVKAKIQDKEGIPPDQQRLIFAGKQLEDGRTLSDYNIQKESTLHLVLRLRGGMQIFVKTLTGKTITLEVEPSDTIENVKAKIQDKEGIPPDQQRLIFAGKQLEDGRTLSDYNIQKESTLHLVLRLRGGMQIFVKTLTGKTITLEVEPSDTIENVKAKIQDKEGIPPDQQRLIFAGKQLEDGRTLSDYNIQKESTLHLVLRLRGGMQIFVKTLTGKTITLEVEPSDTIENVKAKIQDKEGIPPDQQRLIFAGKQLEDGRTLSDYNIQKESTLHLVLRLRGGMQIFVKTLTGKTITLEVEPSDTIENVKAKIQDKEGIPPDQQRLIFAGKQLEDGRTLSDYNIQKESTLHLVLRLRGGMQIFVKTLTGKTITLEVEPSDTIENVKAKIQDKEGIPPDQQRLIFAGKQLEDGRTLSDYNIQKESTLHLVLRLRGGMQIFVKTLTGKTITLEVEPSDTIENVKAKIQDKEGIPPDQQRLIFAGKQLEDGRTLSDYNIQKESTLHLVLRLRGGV

For the substance “26S proteasome purified from rabbit muscle (complex)”, the fold binding relative to K11 chains (K11-polyUb cyB1-NT^K64) amounted to 4.5 fold.
